The term Kd denotes the equilibrium constant for the complex coming apart. What is called koff is the rate constant with which the complex falls apart. By kon is commonly meant a measure of how fast the partners come together.

The values that follow come from paper PMC5653825, “Arrhythmogenic cardiomyopathy related DSG2 mutations affect desmosomal cadherin binding kinetics” (Scientific Reports, 2017).

Data set [1] deals with Dsg2 (Homo sapiens) (UniProt Q14126). The data set is described as follows: sedimentation equilibrium AUC. To be noted: cited from earlier work.
Data set [2] concerns the molecule itself. Kind of data set: AFM single molecule force spectroscopy; Dsg2 EC1-4 covalently immobilised on both the AFM tip (long PEG linker) and the gold substrate; calcium buffer (2 mM CaCl2, 10 mM HEPES, 150 mM NaCl, pH 7.4); pulling velocities 200 to 5,000 nm s^-1; k- and x from the Evans and Ritchie model, Kd and k+ from the free energy by Jarzynski's equality; monomer to homodimer.

Consider Dsg2 (from UniProt Q14126), for which the Kd in data set [1] is 433 µM.

B1: Desmoglein-2 (Dsg2) p.V343I (p.V392I), recombinant extracellular cadherin domains 1-4 (EC1-4) (domain or fragment)
chain: AWITAPVALREGEDLSKKNPIAKIHSDLAEERGLKITYKYTGKGITEPPFGIFVFNKDTGELNVTSILDREETPFFLLTGYALDARGNNVEKPLELRIKVLDINDNEPVFTQDVFVGSVEELSAAHTLVMKINATDADEPNTLNSKISYRIVSLEPAYPPVFYLNKDTGEIYTTSVTLDREEHSSYTLTVEARDGNGEVTDKPVKQAQVQIRILDVNDNIPVVENKVLEGMVEENQVNVEVTRIKVFDADEIGSDNWLANFTFASGNEGGYFHIETDAQTNEGIVTLIKEVDYEEMKNLDFSVIVANKAAFHKSIRSKYKPTPIPIKVKVKNVKEGIHFKSSIISIYVSESMDRSSKGQIIGNFQAFDEDTGLPAHARYVKLEDRDNWISVDSVTSEIKLAKLPDFESRYVQNGTYTVKIVAISEDYPRKTITGTVLINVEDINDNCPTLIEPV
modifications: thiol of the unique cysteine C447 (C496) covalently coupled to the maleimide of a cross-linker (maleimide-PEG-succinimidyl valerate 3,400 on the cantilever; NHS 3-maleimidopropionate on the gold substrate)
Regarding B1, in data set [2], the Kd amounted to 1010 µM, the bond lifetime tau came out at 1.73 s, the koff was 0.58 s⁻¹ and the kon came to 573 M⁻¹ s⁻¹.

B2: Desmoglein-2 (Dsg2) p.D105E (p.D154E), recombinant extracellular cadherin domains 1-4 (EC1-4) (domain or fragment)
chain: AWITAPVALREGEDLSKKNPIAKIHSDLAEERGLKITYKYTGKGITEPPFGIFVFNKDTGELNVTSILDREETPFFLLTGYALDARGNNVEKPLELRIKVLDINENEPVFTQDVFVGSVEELSAAHTLVMKINATDADEPNTLNSKISYRIVSLEPAYPPVFYLNKDTGEIYTTSVTLDREEHSSYTLTVEARDGNGEVTDKPVKQAQVQIRILDVNDNIPVVENKVLEGMVEENQVNVEVTRIKVFDADEIGSDNWLANFTFASGNEGGYFHIETDAQTNEGIVTLIKEVDYEEMKNLDFSVIVANKAAFHKSIRSKYKPTPIPIKVKVKNVKEGIHFKSSVISIYVSESMDRSSKGQIIGNFQAFDEDTGLPAHARYVKLEDRDNWISVDSVTSEIKLAKLPDFESRYVQNGTYTVKIVAISEDYPRKTITGTVLINVEDINDNCPTLIEPV
modifications: thiol of the unique cysteine C447 (C496) covalently coupled to the maleimide of a cross-linker (maleimide-PEG-succinimidyl valerate 3,400 on the cantilever; NHS 3-maleimidopropionate on the gold substrate)
Regarding B2, in data set [2], the Kd is 817 µM, the bond lifetime tau was determined as 3.39 s, the koff amounted to 0.3 s⁻¹ and the kon was found to be 361 M⁻¹ s⁻¹.

B3: Desmoglein-2 (Dsg2) wildtype, recombinant extracellular cadherin domains 1-4 (EC1-4) (domain or fragment)
chain: AWITAPVALREGEDLSKKNPIAKIHSDLAEERGLKITYKYTGKGITEPPFGIFVFNKDTGELNVTSILDREETPFFLLTGYALDARGNNVEKPLELRIKVLDINDNEPVFTQDVFVGSVEELSAAHTLVMKINATDADEPNTLNSKISYRIVSLEPAYPPVFYLNKDTGEIYTTSVTLDREEHSSYTLTVEARDGNGEVTDKPVKQAQVQIRILDVNDNIPVVENKVLEGMVEENQVNVEVTRIKVFDADEIGSDNWLANFTFASGNEGGYFHIETDAQTNEGIVTLIKEVDYEEMKNLDFSVIVANKAAFHKSIRSKYKPTPIPIKVKVKNVKEGIHFKSSVISIYVSESMDRSSKGQIIGNFQAFDEDTGLPAHARYVKLEDRDNWISVDSVTSEIKLAKLPDFESRYVQNGTYTVKIVAISEDYPRKTITGTVLINVEDINDNCPTLIEPV
modifications: thiol of the unique cysteine C447 (C496) covalently coupled to the maleimide of a cross-linker (maleimide-PEG-succinimidyl valerate 3,400 on the cantilever; NHS 3-maleimidopropionate on the gold substrate)
On to B3, for which, in data set [2], the Kd was 412 µM, the bond lifetime tau is 0.33 s, the koff came to 2.99 s⁻¹ and the kon was 7270 M⁻¹ s⁻¹.
